Measurements from patent publication US8299028B2, “Chimeric peptide antagonist for GPCR135 or GPCR142” (Janssen Pharmaceutica NV, priority 2007, dated 2012).

Experiments:
human LGR7 = target: T1, human LGR7 (Homo sapiens, UniProt Q9HBX9); test: Radioligand binding assay, 125I-relaxin-2 tracer, COS-7 cells expressing LGR7; set-up: expressed in transfected cells
T1 sequence (Q9HBX9 1-757): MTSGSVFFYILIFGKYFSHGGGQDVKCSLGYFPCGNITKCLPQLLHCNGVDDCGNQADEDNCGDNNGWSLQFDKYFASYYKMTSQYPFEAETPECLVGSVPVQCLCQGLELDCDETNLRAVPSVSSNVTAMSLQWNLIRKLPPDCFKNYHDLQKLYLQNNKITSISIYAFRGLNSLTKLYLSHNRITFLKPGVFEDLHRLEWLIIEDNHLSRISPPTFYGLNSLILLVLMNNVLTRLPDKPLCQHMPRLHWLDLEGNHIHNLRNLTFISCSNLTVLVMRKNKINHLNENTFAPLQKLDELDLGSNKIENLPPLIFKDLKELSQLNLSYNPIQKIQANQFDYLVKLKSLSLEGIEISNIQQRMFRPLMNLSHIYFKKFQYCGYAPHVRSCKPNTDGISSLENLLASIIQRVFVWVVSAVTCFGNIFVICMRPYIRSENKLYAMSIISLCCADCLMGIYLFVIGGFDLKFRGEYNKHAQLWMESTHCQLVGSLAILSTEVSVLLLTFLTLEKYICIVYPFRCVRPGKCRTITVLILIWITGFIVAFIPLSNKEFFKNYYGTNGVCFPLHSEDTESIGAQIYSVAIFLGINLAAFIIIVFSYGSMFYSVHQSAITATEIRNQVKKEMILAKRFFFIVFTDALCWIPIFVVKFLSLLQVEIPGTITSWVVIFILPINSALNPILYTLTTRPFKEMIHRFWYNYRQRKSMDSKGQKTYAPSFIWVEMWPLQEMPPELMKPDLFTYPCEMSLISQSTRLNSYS
From the text: (§1) COS-7 cells in 24-well tissue culture plates transiently expressing GPCR135, GPCR142 or LGR7 were used in radioligand binding assays as described by Liu et al., 2005a, J. Biol. Chem., 280:292-300. ^125I-Relaxin-3/INSL5 (^125I-R3/I5), a radiolabeled chimeric peptide with the human relaxin-3 B-chain and the human INSL5 A-chain (Liu et al., 2005b), was used at a final concentration of 50 pM as the tracer to characterize the binding properties of all truncated relaxin-3 peptides for GPCR135 and GPCR142. ^125I-relaxin-2 (PerkinElmer Biosciences, Boston) was used at a final concentration of 50 pM to characterize the binding properties of the truncated peptides for the relaxin receptor (LGR7). The results were analyzed by GraphPad Prism 4.0 software (Graphpad, San Diego). The IC50 values, which are the ligand concentrations that inhibited 50% of the maximum specific binding, were then calculated.

human GPCR135 = target: T2, human GPCR135 (Homo sapiens, UniProt Q9NSD7); test: Radioligand binding assay, 125I-R3/I5 tracer, COS-7 cells expressing GPCR135; set-up: expressed in transfected cells; host or cells: COS-7
T2 sequence (Q9NSD7 1-469): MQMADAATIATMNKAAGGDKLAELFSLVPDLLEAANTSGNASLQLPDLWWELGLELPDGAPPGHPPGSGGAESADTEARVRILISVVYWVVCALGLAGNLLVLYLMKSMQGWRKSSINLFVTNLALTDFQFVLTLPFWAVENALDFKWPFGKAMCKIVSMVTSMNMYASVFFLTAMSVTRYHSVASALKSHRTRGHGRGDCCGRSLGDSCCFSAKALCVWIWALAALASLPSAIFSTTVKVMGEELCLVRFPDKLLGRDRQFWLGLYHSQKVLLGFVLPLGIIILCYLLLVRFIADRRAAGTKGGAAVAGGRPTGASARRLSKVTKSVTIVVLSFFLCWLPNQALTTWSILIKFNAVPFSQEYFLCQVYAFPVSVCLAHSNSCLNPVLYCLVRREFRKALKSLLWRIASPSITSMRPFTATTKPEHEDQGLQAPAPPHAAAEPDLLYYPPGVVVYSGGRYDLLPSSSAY
From the text: as §1

human GPCR142 = human GPCR142 (Homo sapiens, UniProt Q8TDU9); test: Radioligand binding assay, 125I-R3/I5 tracer, COS-7 cells expressing GPCR142; set-up: expressed in transfected cells; host or cells: COS-7
From the text: as §1

Chain of human GPCR142 (Q8TDU9 whole entry): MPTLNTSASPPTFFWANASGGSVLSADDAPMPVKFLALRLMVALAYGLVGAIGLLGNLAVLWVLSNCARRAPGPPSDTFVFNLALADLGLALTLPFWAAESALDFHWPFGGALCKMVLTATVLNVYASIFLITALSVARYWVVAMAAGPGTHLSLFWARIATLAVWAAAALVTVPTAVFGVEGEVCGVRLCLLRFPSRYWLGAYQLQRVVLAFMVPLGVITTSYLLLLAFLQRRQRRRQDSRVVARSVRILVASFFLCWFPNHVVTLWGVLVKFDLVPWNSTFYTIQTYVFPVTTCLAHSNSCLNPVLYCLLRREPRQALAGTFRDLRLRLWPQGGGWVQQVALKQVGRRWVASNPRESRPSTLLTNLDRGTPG

R3(BΔ23-27)R: Relaxin-3 mutant: B-chain SEQ ID NO:15 (Gly23-Trp27 deleted plus C-terminal Arg), relaxin-3 A-chain SEQ ID NO:13
affinity of human LGR7 (human LGR7): low affinity | affinity of human GPCR135 (human GPCR135): high affinities | affinity of human GPCR142 (human GPCR142): high affinities
